Data taken from patent US20180021429A1, “ANTICANCER AGENTS OR ANTIMETASTATIC AGENTS USING FSTL1 AND COMBINATION DRUG THEREOF” (PHARMA FOODS INTERNATIONAL CO., LTD., priority 2015, published 2018).
“Also recorded” adds a separate entry of the source.

T1: FSTL1 (Homo sapiens, UniProt Q12841)
T1 sequence (Q12841 21-308): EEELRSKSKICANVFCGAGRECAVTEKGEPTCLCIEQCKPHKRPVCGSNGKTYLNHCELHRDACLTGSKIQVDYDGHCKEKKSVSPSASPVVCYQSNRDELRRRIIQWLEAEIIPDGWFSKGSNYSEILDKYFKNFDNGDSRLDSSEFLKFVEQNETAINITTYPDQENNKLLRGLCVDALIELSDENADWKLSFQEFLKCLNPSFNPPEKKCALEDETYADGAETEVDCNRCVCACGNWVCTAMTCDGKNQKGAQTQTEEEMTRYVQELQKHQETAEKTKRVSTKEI

T2: mouse FSTL1 (Mus musculus, UniProt Q62356)
T2 construct: AAA linker + 10xHis (C); made in house; host or cells: Expi293 (transient expression; purified from culture supernatant on HisPur Cobalt Resin)
T2 sequence (Q62356 with tags, fused parts or gaps): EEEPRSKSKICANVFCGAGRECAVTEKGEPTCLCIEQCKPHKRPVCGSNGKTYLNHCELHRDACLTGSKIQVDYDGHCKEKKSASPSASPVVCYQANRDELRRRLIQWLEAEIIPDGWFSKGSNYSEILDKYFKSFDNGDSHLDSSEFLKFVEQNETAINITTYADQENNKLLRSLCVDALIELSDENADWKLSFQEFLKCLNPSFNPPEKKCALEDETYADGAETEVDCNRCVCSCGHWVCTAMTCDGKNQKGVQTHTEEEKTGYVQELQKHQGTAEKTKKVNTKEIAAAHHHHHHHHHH


Experiments:
[1] = biological target: T1, FSTL1; assay: Biacore T-200 affinity of mouse chimeric antibodies for human FSTL1 (Example 33); assay type: binding
Method: The mouse chimeric antibodies were immobilized onto Sensor Chip CM5 (GE Healthcare Japan Corp., BR-1005-30) using Mouse Antibody Capture Kit (GE Healthcare Japan Corp., BR-1008-38), and their affinity for human FSTL1 was calculated using Biacore T-200 (GE Healthcare Japan Corp.).
First, the exhaustive activity comparison of the obtained antibodies was conducted with the human FSTL1 concentration fixed to 10 μg/ml (Table 33-1, FIG. 122).
Next, the KD values of clone #6-55, #7-34, and #13 presumed to have high affinity in FIG. 122 were calculated with the antigen concentration adjusted to 0 to 20 μg/ml (Table 35-2).

[2] = tested on: induction of mesenchymal stem cells (MSCs) by FSTL1; assay: Inhibitory activity against MSC induction, ALCAM-/PDGFRA-positive cells (Example 4); assay type: cell-based; details: mouse bone marrow cells; FSTL1 50 ng/mL; antibody 10 μg/mL; 11 days; vs control antibody
Method: It is known that when bone marrow cells are stimulated with FSTL1, mesenchymal stem cells (MSCs) having pluripotency or self-proliferative capacity grow (Cancer Research 73: 6185, 2013). Thus, 2×10^7 cells/well of bone marrow cells collected from the thigh bone of a C57BL/6 mouse were suspended in 3 mL/well of RPMI1640 (GIBCO/Thermo Fisher Scientific Inc., Cat. No. C11875500BT) medium containing 2% fetal bovine serum, supplemented with 50 ng/mL (final concentration) of FSTL1 (R&D Systems, Inc. Cat#1694-FN-050) and 10 μg/mL of the anti-FSTL1 antibody (#5-2, #5-3, #5-8, #5-10, #5-43, #6-55, or #7-34) or its isotype mouse IgG (anti-DNP antibody) as a control antibody “Control”, and cultured under stimulation (6-well plate). 11 days thereafter, the number of cells was counted while the cells were stained with a PE-labeled anti-ALCAM antibody
(eBioscience, Cat. No. 12-1661-82) and a PE-labeled anti-PDGFRA antibody (eBioscience, Cat#12-1401-81) in order to examine the expression of MSC markers, and the contents of ALCAM-positive cells and PDGFR-positive cells were analyzed by flow cytometry using FACScan (Becton, Dickinson and Company, Code. BECTON-DICKINSON-FACSCAN) to calculate the number of each positive cell per culture.
It is known that when bone marrow cells are stimulated with FSTL1, mesenchymal stem cells (MSCs) having pluripotency or self-proliferative capacity grow (Cancer Research 73: 6185, 2013). […] 11 days thereafter, the number of cells was counted while the cells were stained with a PE-labeled anti-ALCAM antibody (eBioscience, Cat. No. 12-1661-82) and a PE-labeled anti-PDGFRA antibody (eBioscience, Cat#12-1401-81) in order to examine the expression of MSC markers, and the contents of ALCAM-positive cells and PDGFR-positive cells were analyzed by flow cytometry using FACScan (Becton, Dickinson and Company, Code. BECTON-DICKINSON-FACSCAN) to calculate the number of each positive cell per culture.

[3] = biological target: T2, mouse FSTL1; assay: ELISA, binding activity of purified antibody against mouse FSTL1 (Example 2)
Method: (§1) The reactivity of the obtained antibody clones described above with FSTL1 was evaluated by ELISA under the following conditions.
(§2) Antibodies used: anti-dinitrophenyl (DNP) antibody (negative control), #5-2, #5-3, #5-8, #5-10, #5-43, #6-55, and #7-34
FIGS. 64 and 65 show results of evaluating binding activity under the condition of Table 3 as to clones differing in screening and antibody purification timings.

[4] = biological target: T2, mouse FSTL1; assay: ELISA binding activity of purified antibody against mouse FSTL1 (Example 2)
Method: as §1
(Table 2 ELISA conditions for binding activity evaluation of purified antibody) Antibodies used: anti-dinitrophenyl (DNP) antibody (negative control), #5-2, #5-3, #5-8, #5-10, #5-43, #6-55, and #7-34
FIGS. 2 and 3 show results of evaluating binding activity under the condition of Table 3 as to clones differing in screening and antibody purification timings.
as §2
FIGS. 32 and 33 show results of evaluating binding activity under the condition of Table 3 as to clones differing in screening and antibody purification timings.

[5] = antibody diluted from 100 ng/ml

Molecule | binding activity against mouse FSTL1 [3, 5] | binding activity against mouse FSTL1 ([4]; FIG. 3B/33B) | also measured
#33: chicken-mouse chimeric anti-FSTL1 antibody clone; variable regions SEQ ID NO: 823 (light), 825 (heavy) (antibody, V domains shown, mouse constant regions) VH: AVTLDESGGGLQTPGGGLSLVCKASGFTFSSFNMNWVRQAPGKGLEYVAEISGTGSSTYYGSAVKGRATISRDNGQSTVRLQLNNLRAEDTATYFCARGDGAYSIDAWGHGTEVIVSS VL: ASTQPSSVSANPGETVEITCSGDSSYYGWFQQKSPGSAPVTVIYDNTNRPSDIPSRFSGSKSGSTATLTITGVRAEDEAVYYCGGYDSSTYDGIFGAGTTLTVL | – | – | affinity in an assay system using surface plasmon resonance [1]: strong affinity
#5-43: chicken-mouse chimeric anti-FSTL1 antibody clone; variable regions SEQ ID NO: 779 (light), 781 (heavy) (antibody, V domains shown, mouse constant regions) VH: AVTLDESGGGLQTPGGGLSLVCKGSGFTFSSFNMFWVRQAPGKGLEWVAGIGKDGGTGYGAAVDGRATISKDSGQSTLRLQLNNLRAEDTGTYYCAKAAGGCSYDWCGAYTGDIDTWGHGTEVIVSS VL: ASTQPSSVSANPGEAVKITCSGGSGSYYGWYQQKSPGSAPVTVIYNNNQRPSDIPSRFSGSKSGSTATLTITGVQAEDEAVYFCGGYDSSTGHGGIFGAGTTLTVL | – | – | inhibitory activity against the expansion of ALCAM-positive cells and PDGFRA-positive cells by FSTL1 [2]: slightly strong tendency of inhibitory activity
#5-8: chicken-mouse chimeric anti-FSTL1 antibody clone; variable regions SEQ ID NO: 771 (light), 773 (heavy) (antibody, V domains shown, mouse constant regions) VH: AVTLDESGGGLQTPGGGLSLVCKGSGFTFSSFNMFWVRQAPGKGLEWVAGIGKDGVPKYGTAVDGRATISKDNGQSTMRLQLNNLRAEDTGTYFCAKAAGGCSYDWCGIYTGDIDTWGHGTEVIVSS VL: ASTQPSSVSANPGEAVKITCSGGSGSYYGWYQQKSPGSAPVTVIYNNNQRPSDIPSRFSGSKSGSTATLTITGVQAEDEAVYFCGGYDSSTGHGGIFGAGTTLTVL | exhibited no binding activity | no binding activity | –
#8-1: chicken-mouse chimeric anti-FSTL1 antibody clone; variable regions SEQ ID NO: 791 (light), 793 (heavy) (antibody, V domains shown, mouse constant regions) VH: AVTLDESGGGLQTPGGALSLVCKGSGFTFSSFNMFWVRQAPGKGLEWVAGIGKDGVPKYGAAVDGRATISKDNGQSTMRLQLNNLRAEDTGTYFCAKAAGGCSYDWCGIYAGDIDTWGHGTEVIVSS VL: ASTQPSSVSANPGEAVKITCSGGSGSYYGWYQQKSPGSAPVTVIYNNNQRPSDIPSRFSGSKSGSTATLTITGVQAEDEAVYFCGGYDSSSGHGGIFGAGTTLTVL | slightly exhibited binding activity; also recorded: very slightly exhibited binding activity | slightly exhibited binding activity; also recorded: very slightly exhibited binding activity | –
#8-4: chicken-mouse chimeric anti-FSTL1 antibody clone; variable regions SEQ ID NO: 795 (light), 797 (heavy) (antibody, V domains shown, mouse constant regions) VH: AVTLDESGGGLQTPGGGLSLVCKGSGFTLSSFNMFWVRQAPGKGLEWVAGVGKDGGTAYGAAVDGRATISRDSGQSTVRLQLNNLRAEDTGTYFCAKAAGGCSYSWCGAYVGDLDAWGHGTEVIVSS VL: ASSQPSSVSANPGETVKITCSGGSGYYYGWYQQKSPGSAPVTVIYNNDNKPSDIPSRFSGSKSGSTGTLTITGVQVEDEAVYFCGGYDNSGTGIFGAGTTLTVL | exhibited no binding activity | no binding activity | –
#7-34: chicken-mouse chimeric anti-FSTL1 antibody clone; variable regions SEQ ID NO: 787 (light), 789 (heavy) (antibody, V domains shown, mouse constant regions) VH: AVTLDESGGGLQTPGGGLSLVCKASGFTFSSVTMQWVRQAPGKGLEWVASICSGSSTYYGPAVKGRATISRDNGQNTVRLQLNNLRAEDTATYYCAKIVGRGRWSCTSAAYNIDAWGHGTEVIVSS VL: ASTQPSSVSANPGETVKITCSGGGNNYGWYQQKSPGSAPVTVIYYNNNRPSNIPSRFSGSTSGSTSTLTITGVQAEDEAVYYCGSYEGSTDSGIFGAGTTLTVL | – | – | binding activity against mouse FSTL1 ([3]; cross reactivity test, antibody diluted from 1000 ng/ml): specific and equivalently strong binding activity; binding activity against mouse FSTL1 ([4]; FIG. 1B/31B): specific and equivalently strong binding activity; inhibitory activity against the expansion of ALCAM-positive cells and PDGFRA-positive cells by FSTL1 [2]: slightly strong tendency of inhibitory activity
#13: chicken-mouse chimeric anti-FSTL1 antibody clone; variable regions SEQ ID NO: 815 (light), 817 (heavy) (antibody, V domains shown, mouse constant regions) VH: AVTLDESGGGLQTPGGGLSLVCKASGFTFSSVTMQWVRQAPGKGLEWVASICSGSSTYYGPAVKGRATISRDNGQNTVRLQLNNLRAEDTATYYCAKIVGRGRWSCTSAAYNIDAWGHGTEVIVSS VL: ASTQPSSVSANPGETVKITCSGGGNNYGWYQQKSPGSAPVTVIYNNNNRPSNIPSRFSGSKSGSTNTLTITGVQAEDEAVYYCGSYDSSSDSGIFGAGTTLTVL | – | – | affinity in an assay system using surface plasmon resonance [1]: strong affinity
